# In article doi:10.1101/2019.12.17.877662 (bioRxiv, 2019):
# T1: TtRecF (wild type RecF from Thermus thermophilus) (Thermus thermophilus, UniProt Q5SLM9 1-343)
# T1 sequence (looked up): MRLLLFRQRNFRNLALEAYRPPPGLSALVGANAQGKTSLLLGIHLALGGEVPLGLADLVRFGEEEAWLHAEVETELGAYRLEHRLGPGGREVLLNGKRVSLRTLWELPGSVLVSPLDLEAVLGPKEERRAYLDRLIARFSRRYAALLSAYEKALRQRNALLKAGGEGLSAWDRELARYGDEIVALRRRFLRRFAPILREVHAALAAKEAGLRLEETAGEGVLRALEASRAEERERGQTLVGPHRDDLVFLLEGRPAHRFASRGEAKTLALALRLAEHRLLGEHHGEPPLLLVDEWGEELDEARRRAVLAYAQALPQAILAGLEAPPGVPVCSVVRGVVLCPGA
# T2: TtRecF;TtRecR G169C (Thermus thermophilus;Thermus …, UniProt Q5SLM9;Q5SHY0 1-343;1-194, |G169C)
# T2 sequence 1: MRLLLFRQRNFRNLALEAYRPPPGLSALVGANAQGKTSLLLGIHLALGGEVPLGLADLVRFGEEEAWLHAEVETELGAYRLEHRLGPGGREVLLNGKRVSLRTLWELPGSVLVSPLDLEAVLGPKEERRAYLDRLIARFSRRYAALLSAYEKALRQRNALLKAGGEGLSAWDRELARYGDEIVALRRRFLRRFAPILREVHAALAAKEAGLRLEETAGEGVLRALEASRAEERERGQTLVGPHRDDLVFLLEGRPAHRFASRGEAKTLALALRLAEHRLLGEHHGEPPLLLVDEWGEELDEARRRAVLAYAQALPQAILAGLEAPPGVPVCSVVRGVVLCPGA
# T2 sequence 2: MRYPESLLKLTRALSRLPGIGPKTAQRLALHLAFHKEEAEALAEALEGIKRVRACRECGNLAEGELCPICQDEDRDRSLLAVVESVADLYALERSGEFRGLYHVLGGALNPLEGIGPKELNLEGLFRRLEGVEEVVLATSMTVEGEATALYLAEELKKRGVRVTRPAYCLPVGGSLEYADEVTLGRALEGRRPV
# T3: TtRecF;TtRecR (Thermus thermophilus;Thermus …, UniProt Q5SLM9;Q5SHY0 1-343;1-194, |)
# T3 sequence 1: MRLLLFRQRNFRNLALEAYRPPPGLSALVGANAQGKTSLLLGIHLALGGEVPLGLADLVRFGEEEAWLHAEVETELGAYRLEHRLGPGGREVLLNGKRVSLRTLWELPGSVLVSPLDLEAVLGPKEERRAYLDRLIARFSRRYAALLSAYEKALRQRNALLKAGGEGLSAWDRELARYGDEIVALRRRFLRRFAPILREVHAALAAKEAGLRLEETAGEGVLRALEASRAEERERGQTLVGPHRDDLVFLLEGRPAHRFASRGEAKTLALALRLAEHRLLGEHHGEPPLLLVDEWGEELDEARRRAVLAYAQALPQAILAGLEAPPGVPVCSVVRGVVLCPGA
# T3 sequence 2: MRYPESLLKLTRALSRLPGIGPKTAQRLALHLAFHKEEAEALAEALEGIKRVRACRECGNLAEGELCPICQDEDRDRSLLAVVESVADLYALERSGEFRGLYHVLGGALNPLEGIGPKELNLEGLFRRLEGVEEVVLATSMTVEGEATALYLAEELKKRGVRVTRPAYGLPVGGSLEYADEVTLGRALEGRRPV
# T4: TtRecR G169C (Thermus thermophilus, UniProt Q5SHY0 1-194, G169C)
# T4 sequence: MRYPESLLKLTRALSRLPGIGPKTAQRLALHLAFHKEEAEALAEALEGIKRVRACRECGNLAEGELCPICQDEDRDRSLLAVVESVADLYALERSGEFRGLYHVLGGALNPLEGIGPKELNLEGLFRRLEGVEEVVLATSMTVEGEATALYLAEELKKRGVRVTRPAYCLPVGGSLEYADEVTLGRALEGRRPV
# T5: TtRecF (Thermus thermophilus, UniProt Q5SLM9 1-343)
# T5 sequence: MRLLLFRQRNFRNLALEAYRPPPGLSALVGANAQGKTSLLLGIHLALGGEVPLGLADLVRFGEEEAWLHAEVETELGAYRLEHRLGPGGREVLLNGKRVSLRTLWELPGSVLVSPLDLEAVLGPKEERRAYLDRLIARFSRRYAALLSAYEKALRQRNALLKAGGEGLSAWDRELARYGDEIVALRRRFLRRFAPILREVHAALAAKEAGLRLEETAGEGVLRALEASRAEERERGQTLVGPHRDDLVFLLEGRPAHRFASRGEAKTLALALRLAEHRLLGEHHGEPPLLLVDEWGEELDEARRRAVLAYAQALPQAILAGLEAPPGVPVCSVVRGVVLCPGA
# T6: TtRecR (Thermus thermophilus, UniProt Q5SHY0 1-194)
# T6 sequence: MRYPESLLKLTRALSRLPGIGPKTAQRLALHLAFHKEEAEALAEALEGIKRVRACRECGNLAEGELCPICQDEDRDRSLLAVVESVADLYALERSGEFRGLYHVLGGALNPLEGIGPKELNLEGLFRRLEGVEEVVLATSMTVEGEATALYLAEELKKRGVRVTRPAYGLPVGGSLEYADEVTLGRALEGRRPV
# B1: TtRecF_(D57C) (natural protein, Thermus thermophilus, UniProt Q5SLM9 1-343, looked up)
# chain: MRLLLFRQRNFRNLALEAYRPPPGLSALVGANAQGKTSLLLGIHLALGGEVPLGLACLVRFGEEEAWLHAEVETELGAYRLEHRLGPGGREVLLNGKRVSLRTLWELPGSVLVSPLDLEAVLGPKEERRAYLDRLIARFSRRYAALLSAYEKALRQRNALLKAGGEGLSAWDRELARYGDEIVALRRRFLRRFAPILREVHAALAAKEAGLRLEETAGEGVLRALEASRAEERERGQTLVGPHRDDLVFLLEGRPAHRFASRGEAKTLALALRLAEHRLLGEHHGEPPLLLVDEWGEELDEARRRAVLAYAQALPQAILAGLEAPPGVPVCSVVRGVVLCPGA
# B2: TtRecF_(S261C) (natural protein, Thermus thermophilus, UniProt Q5SLM9 1-343, looked up)
# chain: MRLLLFRQRNFRNLALEAYRPPPGLSALVGANAQGKTSLLLGIHLALGGEVPLGLADLVRFGEEEAWLHAEVETELGAYRLEHRLGPGGREVLLNGKRVSLRTLWELPGSVLVSPLDLEAVLGPKEERRAYLDRLIARFSRRYAALLSAYEKALRQRNALLKAGGEGLSAWDRELARYGDEIVALRRRFLRRFAPILREVHAALAAKEAGLRLEETAGEGVLRALEASRAEERERGQTLVGPHRDDLVFLLEGRPAHRFACRGEAKTLALALRLAEHRLLGEHHGEPPLLLVDEWGEELDEARRRAVLAYAQALPQAILAGLEAPPGVPVCSVVRGVVLCPGA
# B3: TtRecR (wild type RecR from Thermus thermophilus) (natural protein, UniProt Q5SHY0 1-194, looked up)
# chain: MRYPESLLKLTRALSRLPGIGPKTAQRLALHLAFHKEEAEALAEALEGIKRVRACRECGNLAEGELCPICQDEDRDRSLLAVVESVADLYALERSGEFRGLYHVLGGALNPLEGIGPKELNLEGLFRRLEGVEEVVLATSMTVEGEATALYLAEELKKRGVRVTRPAYGLPVGGSLEYADEVTLGRALEGRRPV
# B4: TtRecR_(G169C) (stabilized tetrameric mutant of TtRecR) (natural protein, Thermus thermophilus, UniProt Q5SHY0 1-194, looked up)
# chain: MRYPESLLKLTRALSRLPGIGPKTAQRLALHLAFHKEEAEALAEALEGIKRVRACRECGNLAEGELCPICQDEDRDRSLLAVVESVADLYALERSGEFRGLYHVLGGALNPLEGIGPKELNLEGLFRRLEGVEEVVLATSMTVEGEATALYLAEELKKRGVRVTRPAYCLPVGGSLEYADEVTLGRALEGRRPV
# Experiments:
# cross-linking = molecular target: the molecule itself; assay: cross-linking
# [1] = molecular target: T1, TtRecF (wild type RecF from Thermus …); assay: native gel or EMSA
# TtRecF_(S261C) = molecular target: B2; assay: BLI
# TtRecF_(D57C) = molecular target: B1; assay: BLI
# crystal structure = molecular target: the molecule itself; assay: crystal structure
# TtRecF;TtRecR G169C = molecular target: T2, TtRecF;TtRecR G169C; assay: EMSA
# TtRecF;TtRecR = molecular target: T3, TtRecF;TtRecR; assay: EMSA
# TtRecR G169C = molecular target: T4, TtRecR G169C; assay: EMSA
# TtRecF = molecular target: T5, TtRecF; assay: EMSA
# TtRecR = molecular target: T6, TtRecR; assay: EMSA
binder,measurement,setting,value
B1,stoichiometry N,cross-linking,2
B2,stoichiometry N,cross-linking,2
B3,binding result,[1],binds
same,binding result,TtRecF_(S261C),binds
same,binding result,TtRecF_(D57C),binds
same,stoichiometry N,crystal structure,4
B4,stoichiometry N,cross-linking,4
same,binding result,[1],binds
TTTTTTTTTTTTTTTTTTTTTTTTTTTTTTTTTTT (ssDNA) [FAM-dT35],binding result,TtRecF;TtRecR G169C,no binding
same,binding result,TtRecF;TtRecR,binds
same,binding result,TtRecR G169C,no binding
same,binding result,TtRecF,no binding
same,binding result,TtRecR,no binding
